Data reported in patent US20030023038A1 (Biogen, published 2003).

Columns and labels:
[1] = target: human full length BAFF (construct PS544), found cleaved in the conditioned media (human, UniProt Q9Y275 134-285); experiment: co-transfection in 293T, anti-FLAG (M2) immunoprecipitation of conditioned media, western blot with anti-BAFF 53.14
Description: At 48 hrs. post-transfection, conditioned media was collected and used for immunoprecipitation experiments. The immunoprecipitation samples contained 200 μl of conditioned media, 5 μg/ml of the anti-FLAG antibody M2 (Sigma) and 800 μl of DMEM containing 10% FCS, glutamine, Pen-Strep, G418 and sodium azide and were incubated at 4° C. for 1 hour, with agitation. Then, 30 μl of ProteinA-Sepharose beads (Pharmacia) was added to the samples and the mixture was incubated overnight at 4° C. with agitation. The beads were collected by centrifugation and then washed one time with the DMEM media described above and then 3 times with PBS. The final pellet containing the beads was then suspended in 2× SDS non-reducing sample buffer and boiled for 5 minutes. The beads were spun out and 25 μl of the supernatant was loaded onto 2 separate 4-20% SDS-PAGE gradient gels (Novex). In order to examine the level of ligand expression, non-immunoprecipitated conditioned media from the co-transfected cells were also loaded. These samples were diluted two fold with 2× non-reducing sample buffer, boiled for 2 min. and then 25 μl was loaded into each lane. Each gel contained a set of immunoprecipitations and a set of non-immunoprecipitated conditioned media. […] The filters were again washed 3 times and then detected using ECL reagents (Amersham). […]

[2] = target: T1, human soluble myc-BAFF Q136 (human, UniProt Q9Y275 136-285); experiment: co-transfection in 293T, anti-FLAG (M2) immunoprecipitation of conditioned media, western blot with anti-myc 9E10
T1 construct: also called plasmid #JST556
From the text: Plasmids encoding the following human soluble TNF family ligands were constructed with the indicated N-terminal epitope tags beginning at the ligand amino acid residue indicated in a PCR3 based mammalian cell expression vector: FLAG-APRIL, beginning with residue A105 (plasmid #LT033) or H115 (plasmid #LT038), FLAG-TWEAK A106 (plasmid #PS288), myc-APRIL A105 (plasmid #JST557), and myc-BAFF Q136 (plasmid #JST556). […] At 48 hrs. post-transfection, conditioned media was collected and used for immunoprecipitation experiments. The immunoprecipitation samples contained 100 μl of conditioned media, 5 μg/ml of the anti-FLAG antibody M2 (Sigma, St Louis, Miss.) and 900 μl of DMEM containing 10% FCS, glutamine, Pen-Strep, G418 and sodium azide and were incubated at 4° C. for 1 hour, with agitation. Then, 30 μl of ProteinA-Sepharose beads (Amersham Pharmacia, Piscataway, N.J.) was added to the samples and the mixture was incubated overnight at 4° C. with agitation. The beads were collected by centrifugation and then washed one time with the DMEM media described above and then 3 times with PBS. The final pellet containing the beads was then suspended in 2× SDS non-reducing sample buffer and boiled for 5 minutes. […] The filter was again washed 3 times and then detected using ECL reagents (Amersham Pharmacia, Piscataway, N.J.). […]

Chain of human full length BAFF (construct PS544), found cleaved in the conditioned media (Q9Y275 134-285): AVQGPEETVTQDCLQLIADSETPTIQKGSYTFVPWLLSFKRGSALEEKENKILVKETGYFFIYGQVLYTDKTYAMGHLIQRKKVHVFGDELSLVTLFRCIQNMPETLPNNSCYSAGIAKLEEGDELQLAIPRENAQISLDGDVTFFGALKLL
T1 sequence (Q9Y275 136-285): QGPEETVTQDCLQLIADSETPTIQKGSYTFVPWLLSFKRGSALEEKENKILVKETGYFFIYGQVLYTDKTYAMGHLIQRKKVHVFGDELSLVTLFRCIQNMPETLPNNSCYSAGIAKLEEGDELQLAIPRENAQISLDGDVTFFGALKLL

B1: soluble FLAG-tagged human TWEAK beginning at A106 (ligand, UniProt O43508 106-249, looked up, not shown: small tags and cut ends)
chain: AIAAHYEVHPRPGQDGAQAGVDGTVSGWEEARINSSSPLRYNRQIGEFIVTRAGLYYLYCQVHFDEGKAVYLKLDLLVDGVLALRCLEEFSATAASSLGPQLRLCQVSGLLALRPGSSLRIRTLPWAHLKAAPFLTYFGLFQVH
notes: also called FLAG-TWEAK A106; plasmid PS288
[1]
  binding result: no binding
[2]
  binding result: no binding
